Data published in PMC4735289, “Seasonal induction of alternative principal pathway for rose flower scent” (Scientific Reports, 2016).

What was measured:
[1] = substrate: O=C(O)C(=O)Cc1ccccc1; assay: PPA decarboxylation; phenylacetaldehyde extracted and measured by GC-MS; format: biochemical, Rosa hybrid cultivar; conditions: 1 mM TPP, 5 mM MgCl2, 0.1 M citrate pH 6.0, 40 °C
From the text: PPA decarboxylation; phenylacetaldehyde extracted and measured by GC-MS on […] | the kcat/Km value of […] was higher for PPA than for pyruvic acid (PA)

[2] = substrate: CC(=O)C(=O)O; assay: purified protein; format: biochemical, Rosa hybrid cultivar; conditions: 1 mM TPP, 5 mM MgCl2, 0.1 M citrate pH 6.0, 40 °C

B1: RyPPDC (Rosa hybrid cultivar) (protein)
chain: MEPSTLIGATPRPTSALLPVVPAAACSGTLGRHLARRLVEIGVHDVFSVPGDFNLTLLDHLIAEPELNLIGCCNELNAGYAADGYARARGVGACVVTFTVGGLSVLNAIAGAYSENLPVICIVGGPNSNDYGTNRILHHTIGLPDFTQELRCFQTVTCHQAVVSHLEDAHELIDTAISTALKESKPVYISISCNLPAIPHPTFGRDPVPFFIAPKVSNQIGLEAAVEATAAFLNKAVKPVLVGGPKLRVAKAQKAFVELADASGYPMAVMPSGKGLVPEHHPHFIGTYWGAVSTSFCGEIVESADAYVFVGPIFNDYSSVGYSLLIKKEKAIIVEPNRVTIGNGPSFGWVFMGDFLTALAKKLKKNSTGMENYCRIFVPPGIPLKAQKDEPLRVNVLFKHIQEIVTPNTAIISETGDSWFNCQKLRLPENCGYEFQMQYGSIGWSVGATLGYAQGAKDKRVIACIGDGSFQVTAQDISTMIRCGQNTIIFLINNGGYTIEVEIHDGPYNVIKNWDYTGLVDAIHNGEGKCWTTKVRTEEDLTEAIAKATGEHKDSLCFIEVFVHKDDTRKELLEWGSRVSAANSRPPNPQ
notes: recombinant, baculovirus-insect cell (HighFive) expression, purified by DEAE, Phenyl HP and Superdex 200; cDNA from rose petals
Question: What does the source list for B1?
Answer: Km [1]: 1.32 ± 0.06 mM; kcat [1]: 0.0297 ± 0.00033 s⁻¹; Km [2]: 4.70 ± 0.32 mM; kcat [2]: 0.0215 ± 0.0005 s⁻¹
